Laboratory results published in PMC4063720.

Tests used:
[1] = biological target: Hfq (Pseudomonas aeruginosa PAO1) (UniProt Q9HUM0); test: competition; conditions: EMSA: 10 mM Tris-HCl pH 8.0, 10 mM MgCl2, 60 mM NaCl, 10 mM NaH2PO4, 10 mM DTT, 25 ng tRNA in 10 ul, 37 C 30 min; 4% PAGE in Tris-borate; filter binding buffer …
[2] = biological target: HfqK56A K56A (Pseudomonas aeruginosa PAO1) (UniProt Q9HUM0); test: EMSA; conditions: EMSA: 10 mM Tris-HCl pH 8.0, 10 mM MgCl2, 60 mM NaCl, 10 mM NaH2PO4, 10 mM DTT, 25 ng tRNA in 10 ul, 37 C 30 min; 4% PAGE in Tris-borate; filter binding buffer …
[3] = biological target: Hfq (Pseudomonas aeruginosa PAO1) (UniProt Q9HUM0); test: EMSA; conditions: EMSA: 10 mM Tris-HCl pH 8.0, 10 mM MgCl2, 60 mM NaCl, 10 mM NaH2PO4, 10 mM DTT, 25 ng tRNA in 10 ul, 37 C 30 min; 4% PAGE in Tris-borate; filter binding buffer …
[4] = biological target: HfqY25D Y25D (Pseudomonas aeruginosa PAO1) (UniProt Q9HUM0); test: EMSA; conditions: EMSA: 10 mM Tris-HCl pH 8.0, 10 mM MgCl2, 60 mM NaCl, 10 mM NaH2PO4, 10 mM DTT, 25 ng tRNA in 10 ul, 37 C 30 min; 4% PAGE in Tris-borate; filter binding buffer …
[5] = system: Hfq (Pseudomonas aeruginosa PAO1); test: filter binding; conditions: Hfq-hexamer concentration; duplicate; EMSA: 10 mM Tris-HCl pH 8.0, 10 mM MgCl2, 60 mM NaCl, 10 mM NaH2PO4, 10 mM DTT, 25 ng tRNA in 10 ul, 37 C 30 min; 4% PAGE in Tris-borate; filter binding buffer …
[6] = biological target: Hfq (Pseudomonas aeruginosa PAO1) (UniProt Q9HUM0); test: filter binding; conditions: EMSA: 10 mM Tris-HCl pH 8.0, 10 mM MgCl2, 60 mM NaCl, 10 mM NaH2PO4, 10 mM DTT, 25 ng tRNA in 10 ul, 37 C 30 min; 4% PAGE in Tris-borate; filter binding buffer …

| Substance | binding [1] | binding [2] | binding [3] | binding [4] | Kd [5] [nM] | Kd [6] [nM] |
| --- | --- | --- | --- | --- | --- | --- |
| GGCACAACAACAAUAACAAGCAACGACGAAGACAAUAAAAACAACACGUAACGACUCCAGCACAACAAAAACAAAAUCGCGGAGGCGCAGCUAACUGAUUCUUUUGGAGAGGAGUUGCUGUCGGGACCCGUCCCGCAGCCAGUCGGAAGAAG [CrcZ151 RNA] | binds | binds | binds | binds more weakly |  |  |
| amiE -134-+20 RNA |  |  |  |  | 67 |  |
| GAUCAGGUCGUGCGCAUCAGCGUCGAUGUCGCGGGACCGAACCUAACGCAUACGUACAGAGCAAAUGGGCUCUCCCGGGGUUACCCGGGAGGGCCUUUUUUCGUCCCGAAAAAAUAACAACAAGAGGUGAUAUCCAUGCGUCACGGCGAUAUUUCCUGCAGAAAAAA [amiE -134-+20 RNA] |  | binds | binds | no binding |  | 67 |
| GCGUACAGGGAACACGCAACCCCGAAGGAUCGGGGAAGGGACGUCGCCAGGGAGGCGAUUCAUCAGGAUGAUGACGAGGGACUGAAGAGUGGGCGGGGUAAUACCCCGCCCCUUUUUUUUGCCUGCCGUUUUACUCGUCGCCCUGCAGUUU [RsmZ RNA] | no binding |  |  |  |  |  |
